Results from US20260234258A1 (REPERTOIRE IMMUNE MEDICINES, published 2026).

Tests used:
[1] = biological target: T1, mouse CD8 (on CD8 T cells of mouse splenocytes) (mouse, UniProt P01731 28-247); test: flow cytometry on mouse splenocytes, gated cell types; IL2 loading detected with anti-IL2; median fluorescence intensity
T1 construct: whole, on cells; also called mCD8
Description: (§1) Anti-mouse CD8-human IL2 molecules were evaluated for their ability to specifically bind and load IL2 on CD8 T cells. Briefly, 1×10⁵ mouse splenocytes were incubated with indicated CD8-IL2 (human FC receptor) molecules from one of the concentrations ranging from 0.05 pM to 500 nM. Anti-mouse CD8 antibody was used as control. Following one hour incubation with molecules, splenocytes were washed twice with RPMI complete medium and once with PBS. The washed splenocytes were stained with anti-TL2 (MQ1-17H12), anti-human kappa (MHK-49) and lineage surface makers CD4(RM4-4), NK1.1(PK136) and CD19(6D5) for 20 minutes, after which the cells were washed and analyzed using flow cytometer. Mean fluorescence intensity data was analyzed using four parameter nonlinear regression method to calculated binding affinity in GraphPad prism.

[2] = biological target: T1, mouse CD8 (on CD8 T cells of mouse …); test: flow cytometry on mouse splenocytes, CD8 T cells; bound molecule detected with anti-human kappa; median fluorescence intensity
Description: as §1

[3] = biological target: T1, mouse CD8 (on CD8 T cells of mouse …); test: flow cytometry on mouse splenocytes, CD8 T cells; IL2 loading detected with anti-IL2; median fluorescence intensity
Description: as §1

[4] = biological target: T1, mouse CD8 (on CD8 T cells of mouse …); test: cell-based or functional assay
[5] = biological target: T2, human CD8 (on CD8 T cells of human PBMC) (human, UniProt P01732 22-235); test: cell-based or functional assay
T2 sequence (P01732 22-235 limits assumed): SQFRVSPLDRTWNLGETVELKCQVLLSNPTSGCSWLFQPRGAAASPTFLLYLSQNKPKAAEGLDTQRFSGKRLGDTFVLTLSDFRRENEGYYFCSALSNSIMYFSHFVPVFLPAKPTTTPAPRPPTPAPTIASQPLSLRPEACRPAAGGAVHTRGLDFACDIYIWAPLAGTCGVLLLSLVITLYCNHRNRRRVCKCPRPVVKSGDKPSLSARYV

[6] = biological target: T2, human CD8 (on CD8 T cells of human PBMC); test: flow cytometry on human PBMC, gated cell types; IL2 loading detected with anti-IL2; MFI
Description: (§2) Anti-human CD8-human IL2 molecules were evaluated for their ability to specifically bind and load IL2 on CD8 T cells. Briefly, […] human PBMC were co-cultured with indicated CD8-IL2 (human FC receptor) molecules from one of the concentrations ranging from 0.05 pM to 0.4 nM. Following one hour incubation with molecules, PBMC were washed twice with RPMI complete medium and washed once with PBS. The washed cells were stained with anti-IL2 (MQ1-17H12), anti-human kappa (MHK-49) and lineage surface markers CD3(UCHT1), CD4(SK3) and NK(HCD56) for 20 minutes, after which the cells were washed and analyzed using a flow cytometer. The binding affinity was quantified and represented as mean fluorescence intensity (MFI).

[7] = biological target: T2, human CD8 (on CD8 T cells of human PBMC); test: cell-based or functional assay; remark: listed apart in the source
[8] = biological target: T2, human CD8 (on CD8 T cells of human PBMC); test: flow cytometry on human PBMC, CD8 T cells; bound molecule detected with anti-human kappa; MFI
Description: as §2

T1 sequence (P01731 28-247): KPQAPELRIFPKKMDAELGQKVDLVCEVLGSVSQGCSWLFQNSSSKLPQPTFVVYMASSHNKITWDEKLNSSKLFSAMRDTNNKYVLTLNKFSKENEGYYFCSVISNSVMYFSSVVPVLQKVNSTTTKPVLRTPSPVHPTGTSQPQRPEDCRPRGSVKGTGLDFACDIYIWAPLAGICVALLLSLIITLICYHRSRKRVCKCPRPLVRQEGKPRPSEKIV

B1: mCD8 Fab IL2 (LC) (YTS105) (Fab)
heavy: EVQLKESGPGLVQPSQTLSLTCTVSGFSLTSNSVHWVRQPPGKGLEWMGGIWGDGDTDYNSALKSRLSISRDTSKNQVFLKMNSLQTDDTAIYFCTPLIGSWYFDFWGPGTMVTASSASTKGPSVFPLAPSSKSTSGGTAALGCLVKDYFPEPVTVSWNSGALTSGVHTFPAVLQSSGLYSLSSVVTVPSSSLGTQTYICNVNHKPSNTKVDKKVEPKSC
light: not shown
notes: Anti-mouse CD8 Fab (clone YTS105) with human IL-2 fused to the C-terminus of the light chain
- EC50 (read off the curve) [1]: ~0.3 nM
- EC50 (read off the curve) [2]: ~0.5 nM
- EC50 (read off the curve) [3]: ~0.6 nM
- Percentage of CD8 T Cell expansion at 32 pm [4]: 56.4%
- Percentage of CD8 T Cell expansion at 160 pm [4]: 59.7%

B2: hCD8 IgG IL2 1x (HC) (VH6/VK3) (antibody)
heavy 1: not shown
heavy 2: EVQLVQSGAEVKKPGATVKISCKASGYTFTDFTMHWVQQAPGKGLEWIGLVNPNNGGNIYAEKFQGRVTLTVDTSTSTAYMELSSLRSEDTAVYYCGRVPLYTSHGMDYWGQGTLVTVSSASTKGPSVFPLAPSSKSTSGGTAALGCLVKDYFPEPVTVSWNSGALTSGVHTFPAVLQSSGLYSLSSVVTVPSSSLGTQTYICNVNHKPSNTKVDKKVEPKSCDKTHTCPPCPAPEAAGGPSVFLFPPKPKDTLMISRTPEVTCVVVDVSHEDPEVKFNWYVDGVEVHNAKTKPREEQYASTYRVVSVLTVLHQDWLNGKEYKCKVSNKALGAPIEKTISKAKGQPREPQVYTLPPSRDELTKNQVSLSCAVKGFYPSDIAVEWESNGQPENNYKTTPPVLDSDGSFFLVSKLTVDKSRWQQGNVFSCSVMHEALHNHYTQKSLSLSPGK
light: EIVLTQSPATLSLSPGERATISCRASESVDSYDINSMHWYQQKPGQAPRLLIYRASHLQSGIPARFSGSGSRTDFTLTISSLEPEDFATYYCQQSNEDPLTFGQGTKLEIKRTVAAPSVFIFPPSDEQLKSGTASVVCLLNNFYPREAKVQWKVDNALQSGNSQESVTEQDSKDSTYSLSSTLTLSKADYEKHKVYACEVTHQGLSSPVTKSFNRGEC
notes: Humanized 02A01 (VH6/VK3) anti-human CD8 IgG, knob-in-hole, one human IL-2 on the C-terminus of the knob heavy chain; also called hCD8 IgG IL2 1×(HC)
- EC50 of Proliferation (percentage Ki67), CD8+ T cells [5]: 0.0689 nM
- EC50 (read off the curve) [6]: ~0.03 nM
- EC50 pSTAT5 Activation, CD8+ T cells [7]: 0.448 pM
- EC50 (read off the curve) [8]: ~0.03 nM

B3: mCD8 Fab Fc IL2 (LC) (YTS105) (antibody, human IgG1, kappa, L234A L235A, N297A)
heavy: EVQLKESGPGLVQPSQTLSLTCTVSGFSLTSNSVHWVRQPPGKGLEWMGGIWGDGDTDYNSALKSRLSISRDTSKNQVFLKMNSLQTDDTAIYFCTPLIGSWYFDFWGPGTMVTASSASTKGPSVFPLAPSSKSTSGGTAALGCLVKDYFPEPVTVSWNSGALTSGVHTFPAVLQSSGLYSLSSVVTVPSSSLGTQTYICNVNHKPSNTKVDKKVEPKSCDKTHTCPPCPAPEAAGGPSVFLFPPKPKDTLMISRTPEVTCVVVDVSHEDPEVKFNWYVDGVEVHNAKTKPREEQYASTYRVVSVLTVLHQDWLNGKEYKCKVSNKALGAPIEKTISKAKGQPREPQVYTLPPSRDELTKNQVSLWCLVKGFYPSDIAVEWESNGQPENNYKTTPPVLDSDGSFFLYSKLTVDKSRWQQGNVFSCSVMHEALHNHYTQKSLSLSPGK
chain: DKTHTCPPCPAPEAAGGPSVFLFPPKPKDTLMISRTPEVTCVVVDVSHEDPEVKFNWYVDGVEVHNAKTKPREEQYASTYRVVSVLTVLHQDWLNGKEYKCKVSNKALGAPIEKTISKAKGQPREPQVYTLPPSRDELTKNQVSLSCAVKGFYPSDIAVEWESNGQPENNYKTTPPVLDSDGSFFLVSKLTVDKSRWQQGNVFSCSVMHEALHNHYTQKSLSLSPGK
light: not shown
notes: One-armed Fab-Fc (clone YTS105) with human IL-2 on the C-terminus of the light chain; also called mCD8 Fc-IL2(LC); CD8Fc-IL2
- EC50 (read off the curve) [1]: ~0.4 nM
- EC50 (read off the curve) [2]: ~0.7 nM
- EC50 (read off the curve) [3]: ~0.8 nM
- Percentage of CD8 T Cell expansion at 32 pm [4]: 56.1%
- Percentage of CD8 T Cell expansion at 160 pm [4]: 60.6%

B4: mCD8 IgG IL2 (HC) (YTS105) (antibody)
heavy: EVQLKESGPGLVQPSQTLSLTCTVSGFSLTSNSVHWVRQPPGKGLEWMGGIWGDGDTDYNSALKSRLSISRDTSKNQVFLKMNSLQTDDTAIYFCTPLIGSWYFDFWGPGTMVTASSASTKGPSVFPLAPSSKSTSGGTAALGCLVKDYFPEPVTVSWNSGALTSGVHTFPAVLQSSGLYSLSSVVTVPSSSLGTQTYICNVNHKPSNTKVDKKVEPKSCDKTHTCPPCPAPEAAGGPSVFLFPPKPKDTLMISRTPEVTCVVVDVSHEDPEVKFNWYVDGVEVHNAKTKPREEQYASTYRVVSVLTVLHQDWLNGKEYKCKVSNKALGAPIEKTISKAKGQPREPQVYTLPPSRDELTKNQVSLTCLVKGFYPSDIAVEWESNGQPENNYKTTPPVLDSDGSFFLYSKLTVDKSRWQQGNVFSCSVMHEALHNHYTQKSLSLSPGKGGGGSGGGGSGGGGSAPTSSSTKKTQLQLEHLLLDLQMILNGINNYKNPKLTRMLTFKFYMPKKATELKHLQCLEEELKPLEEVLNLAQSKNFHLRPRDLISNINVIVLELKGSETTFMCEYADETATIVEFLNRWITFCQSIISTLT
light: DIVMTQSPSSLAVSAGERVTLNCKASQNVRNNIAWYQQKPGQSPKLLIYYASYRYTGVPDRFTGDGFGTDFTLAINSVQADDAAFYYCQRIYNSPYTFGAGTKLELIRTVAAPSVFIFPPSDEQLKSGTASVVCLLNNFYPREAKVQWKVDNALQSGNSQESVTEQDSKDSTYSLSSTLTLSKADYEKHKVYACEVTHQGLSSPVTKSFNRGEC
notes: Anti-mouse CD8 IgG (clone YTS105) with human IL-2 on the C-terminus of each heavy chain
- EC50 (read off the curve) [1]: ~0.05 nM
- EC50 (read off the curve) [2]: ~0.04 nM
- EC50 (read off the curve) [3]: ~0.05 nM
- Percentage of CD8 T Cell expansion at 32 pm [4]: 46.5%
- Percentage of CD8 T Cell expansion at 160 pm [4]: 63.2%

B5: mCD8IgG (anti-mouse CD8 antibody control, clone YTS105) (antibody, not shown: a dimerising Fc or GST)
heavy: B1 heavy
light: B4 light
notes: Control without IL-2
- EC50 (read off the curve) [2]: ~0.04 nM
